Measurements from article doi:10.1101/2021.05.01.442282 (bioRxiv, 2021).

Target: monomeric recombinant human ASC (Apoptosis-associated speck-like protein containing a caspase recruitment … (human, UniProt Q9ULZ3 1-195))
Test: limited proteolysis-coupled mass spectrometry

Chain of monomeric recombinant human ASC (Apoptosis-associated speck-like protein containing a caspase recruitment … (Q9ULZ3 whole entry): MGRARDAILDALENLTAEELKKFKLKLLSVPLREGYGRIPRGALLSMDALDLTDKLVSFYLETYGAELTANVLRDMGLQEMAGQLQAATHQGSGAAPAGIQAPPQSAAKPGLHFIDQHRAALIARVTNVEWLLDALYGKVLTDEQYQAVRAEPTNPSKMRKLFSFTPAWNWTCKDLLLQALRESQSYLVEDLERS

binding result: binds
B1: monomeric recombinant human SAA1 (serum amyloid A1) (natural protein, UniProt P0DJI8 19-122, looked up)
chain: RSFFSFLGEAFDGARDMWRAYSDMREANYIGSDKYFHARGNYDAAKRGPGGAWAAEVITDARENIQRFFGHGAEDSLADQAANEWGRSGKDPNHFRPAGLPEKY
